Assay results: patent publication US20190062438A1 (CSL, published 2019)
Residue numbers refer to the chain shown, from its start.

Tests used:
Test in all cases: SPR, Fab over captured mutant
shCD131 T106A = molecular target: T1, shCD131 T106A (human, UniProt P32927 17-438)
T1 construct: C-terminal 6xHis
T1 sequence: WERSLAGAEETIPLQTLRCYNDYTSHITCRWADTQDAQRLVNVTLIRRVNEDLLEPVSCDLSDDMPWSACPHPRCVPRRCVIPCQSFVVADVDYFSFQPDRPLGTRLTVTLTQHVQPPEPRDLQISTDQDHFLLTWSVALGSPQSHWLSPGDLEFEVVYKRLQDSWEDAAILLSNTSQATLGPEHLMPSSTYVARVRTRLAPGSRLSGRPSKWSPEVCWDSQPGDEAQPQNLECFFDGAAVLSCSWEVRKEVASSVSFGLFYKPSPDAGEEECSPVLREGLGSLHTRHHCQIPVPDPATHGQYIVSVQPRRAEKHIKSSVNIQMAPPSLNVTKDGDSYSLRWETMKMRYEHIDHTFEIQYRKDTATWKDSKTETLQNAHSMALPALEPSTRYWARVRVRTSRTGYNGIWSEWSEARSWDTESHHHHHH
Description: For some analysis purified Fab was injected over each flow cell for 3 minutes and dissociation was monitored for a further 10 minutes. Regeneration of the surface was performed after each cycle with a 40 second injection of 25 mM glycine, pH 2.0. The analysis was performed with Fabs at several concentrations between 100 and 0.31 nM, with each concentration analyzed twice and in random order. The analysis was performed at a flow rate of 30 μl/min in HBS-EP buffer (10 mM Hepes, 150 mM NaCl, 3 mM EDTA, 0.005% Tween 20, pH 7.4) at 37° C. Responses from spots 2 and 4 of each flow cell, (in which shβc was not captured, but otherwise treated identically), were subtracted from those of spots 1 and 5 respectively to produce reference subtracted data. Reference subtracted responses from a blank injection comprising buffer alone were subtracted from the resultant sensorgrams to produce double referenced data suitable for kinetic analysis. […]
Mapping of the shCD131 epitope was performed by measurement of the affinity of Fabs for various alanine point mutants of shCD131 essentially as described above, with the following exceptions. […] For kinetic analysis, purified recombinant Fabs were injected for 2 minutes, and dissociation was monitored for a further 2 minutes. […] Kinetic parameters were determined as described above.

shCD131 I338A = molecular target: T2, shCD131 I338A (human, UniProt P32927 17-438)
T2 construct: C-terminal 6xHis; also called 1338A
T2 sequence: T1 sequence with A90T, I322A
Description: (§1) As shβc is a dimer, kinetics assays were performed with shβc captured on the sensor surface, and purified Fab injected as the analyte. Avidity effects were avoided by the use of Fab rather than whole IgG.
(§2) shCD131 was captured on spots 1 and 5 of each flow cell for 2 minutes at a concentration of 0.4 μg/ml. […] For some analysis purified Fab was injected over each flow cell for 3 minutes and dissociation was monitored for a further 10 minutes. Regeneration of the surface was performed after each cycle with a 40 second injection of 25 mM glycine, pH 2.0. The analysis was performed with Fabs at several concentrations between 100 and 0.31 nM, with each concentration analyzed twice and in random order. The analysis was performed at a flow rate of 30 μl/min in HBS-EP buffer (10 mM Hepes, 150 mM NaCl, 3 mM EDTA, 0.005% Tween 20, pH 7.4) at 37° C. Responses from spots 2 and 4 of each flow cell, (in which shβc was not captured, but otherwise treated identically), were subtracted from those of spots 1 and 5 respectively to produce reference subtracted data. Reference subtracted responses from a blank injection comprising buffer alone were subtracted from the resultant sensorgrams to produce double referenced data suitable for kinetic analysis. Double-referenced sensorgrams were fitted using non-linear regression to a model describing 1:1 kinetics, including a term for mass transport limitation. The Rₘₐₓ value was fitted locally to account for slight deviations in the level of sCD131 captured, with association rate (kₐ), dissociation rate (kd) and equilibrium dissociation constant (KD) fitted globally.
(§3) Mapping of the shCD131 epitope was performed by measurement of the affinity of Fabs for various alanine point mutants of shCD131 essentially as described above, with the following exceptions. Each shCD131 mutant was captured for 120 seconds at concentrations between 1 and 5 μg/ml. For kinetic analysis, purified recombinant Fabs were injected for 2 minutes, and dissociation was monitored for a further 2 minutes. […] Fab concentrations ranged from 16 μM to 3.9 nM in two-fold dilutions.

shCD131 Y365A = molecular target: T3, shCD131 Y365A (human, UniProt P32927 17-438)
T3 construct: C-terminal 6xHis
T3 sequence: T1 sequence with A90T, Y349A
Description: as §1, §2, §3

B1: 9A2 Fab (Fab, V domains shown)
VH: EVQLLESGGGLVQPGGSLRLSCAASGFTFSHYHMLWVRQAPGKGLEWVSSIRSSGGFTYYADSVKGRFTISRDNSKNTLYLQMNSLRAEDTAVYYCARFYDSFFDIWGQGTMVTVSS
VL: DIQMTQSPSSVSASVGDRVTITCRASQGISSWLAWYQQKPGKAPKLLIYAASSLQSGVPSRFSGSGSGTDFTLTISSLQPEDFATYYCQQANSFPITFGQGTRLEIKR
notes: also called recombinant Fab of 9A2
- fold increase in affinity relative to WT shCD131 (shCD131 T106A): ~10 fold
- binding result (shCD131 I338A): no binding (tested: Fab up to 16 µM)
- binding result (shCD131 Y365A): no binding (tested: Fab up to 16 µM)
